Tests used:
[1] = target: T1, Aβ1–40 (Homo sapiens, UniProt P05067); test: IM-MS analysis of complex formation with Aβ1–40; type: binding; conditions: alanine substituted variants of leucine enkephalin
[2] = test system: Aβ; conditions: incubated in excess with leucine enkephalin, compared with control; cited from earlier work
[3] = target: T1, Aβ1–40; conditions: cited from earlier work

T1 sequence (P05067 672-711 limits assumed): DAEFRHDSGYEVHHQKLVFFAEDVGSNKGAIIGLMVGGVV

| Substance | Complex formation with Aβ1–40 (IM-MS signal) [1] | Aβ fibrillation (TEM and gel) [2] | Stoichiometric ratios of Aβ:leucine enkephalin complexes [3] |
| --- | --- | --- | --- |
| AGGFL: alanine substituted variant of leucine enkephalin (Leu-enkephalin; UniProt P01210 230-234, looked up, variant Y1A) | complexes formed | – | – |
| Leucine enkephalin acetate hydrate | – | decreased Aβ fibrillation | 1:1 to 1:3, and from 2:1 to 2:3 |
| YGAFL: alanine substituted variant of leucine enkephalin (Leu-enkephalin; UniProt P01210 230-234, looked up, variant G3A) | complexes formed | – | – |
| YGGAL: alanine substituted variant of leucine enkephalin (Leu-enkephalin; UniProt P01210 230-234, looked up, variant F4A) | no measureable complex signals | – | – |
| YGGFA: alanine substituted variant of leucine enkephalin (Leu-enkephalin; UniProt P01210 230-234, looked up, variant L5A) | no measureable complex signals | – | – |
